According to paper PMC7419741:

Assays:
CCR9^QTY–Fc = CCR9^QTY–Fc (UniProt P51686); test: MST; 5 nM NT647-labelled receptor-Fc against a gradient of ligand; 1x PBS, 10 mM DTT, arginine at different concentrations; Monolith NT.115 pico, 25°C; data from the early T-Jump period; Kd model (law of mass action)
CCL25 (Homo sapiens) = CCL25 (Homo sapiens) (UniProt O15444); settings: cited from earlier work
[1] = target: IL8 (monomer) (Homo sapiens) (UniProt P10145); test: cell-based assay; settings: cited from earlier work
Chain of IL8 (monomer) (Homo sapiens) (P10145 28-99): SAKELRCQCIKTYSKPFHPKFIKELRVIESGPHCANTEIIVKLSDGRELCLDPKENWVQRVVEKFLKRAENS

[2] = target: IL8 (dimer) (Homo sapiens) (UniProt P10145); test: cell-based assay; settings: cited from earlier work
Chain of IL8 (dimer) (Homo sapiens) (P10145 28-99): as above

IL8 (Homo sapiens) = IL8 (Homo sapiens) (UniProt P10145); settings: cited from earlier work
Chain of IL8 (Homo sapiens) (P10145 28-99): as above

IFNγR1^QTY–Fc = test: MST; 5 nM NT647-labelled receptor-Fc against a gradient of ligand; 1x PBS, 10 mM DTT, arginine at different concentrations; Monolith NT.115 pico, 25°C; data from the early T-Jump period; Kd model (law of mass action)
IFNγ (Homo sapiens) [3] = target: IFNγ (Homo sapiens) (UniProt P01579); test: cell-based assay; settings: cited from earlier work
Chain of IFNγ (Homo sapiens) (P01579 24-161): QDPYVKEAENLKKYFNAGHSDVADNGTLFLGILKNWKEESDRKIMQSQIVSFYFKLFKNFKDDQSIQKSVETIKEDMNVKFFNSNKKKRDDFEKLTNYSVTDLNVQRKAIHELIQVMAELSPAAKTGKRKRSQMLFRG

IFNγ (Homo sapiens) [4] = target: IFNγ (Homo sapiens) (UniProt P01579); test: SPR; settings: cited from earlier work
IL4 (Homo sapiens) = IL4 (Homo sapiens) (UniProt P05112); test: SPR; settings: cited from earlier work
Chain of IL4 (Homo sapiens) (P05112 25-153): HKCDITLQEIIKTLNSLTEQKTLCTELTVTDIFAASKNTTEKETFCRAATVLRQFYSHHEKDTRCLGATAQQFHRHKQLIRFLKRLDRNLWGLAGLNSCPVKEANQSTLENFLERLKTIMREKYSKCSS

IL10Rα^QTY–Fc = test: MST; 5 nM NT647-labelled receptor-Fc against a gradient of ligand; 1x PBS, 10 mM DTT, arginine at different concentrations; Monolith NT.115 pico, 25°C; data from the early T-Jump period; Kd model (law of mass action)
IFNλR1^QTY–Fc = test: as above

Chain of CXCR2 (P25025 whole entry): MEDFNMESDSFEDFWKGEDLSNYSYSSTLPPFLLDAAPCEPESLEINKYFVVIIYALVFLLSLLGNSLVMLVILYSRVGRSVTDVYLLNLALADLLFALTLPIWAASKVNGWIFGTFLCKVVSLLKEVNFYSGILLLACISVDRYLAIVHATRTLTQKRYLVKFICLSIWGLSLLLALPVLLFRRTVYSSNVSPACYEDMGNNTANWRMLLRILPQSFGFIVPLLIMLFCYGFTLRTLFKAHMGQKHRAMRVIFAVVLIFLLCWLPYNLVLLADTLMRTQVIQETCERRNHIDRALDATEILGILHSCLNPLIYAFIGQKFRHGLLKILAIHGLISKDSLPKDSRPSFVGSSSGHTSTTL
Chain of IFNγR1 (P15260 18-245): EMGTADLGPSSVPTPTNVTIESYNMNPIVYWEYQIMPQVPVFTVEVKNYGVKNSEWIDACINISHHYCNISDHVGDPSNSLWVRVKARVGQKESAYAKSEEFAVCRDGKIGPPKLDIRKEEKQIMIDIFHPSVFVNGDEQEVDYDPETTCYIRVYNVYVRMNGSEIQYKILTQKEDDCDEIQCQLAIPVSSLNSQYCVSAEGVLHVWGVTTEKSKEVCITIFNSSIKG
Chain of IL29 (Q8IU54 20-200): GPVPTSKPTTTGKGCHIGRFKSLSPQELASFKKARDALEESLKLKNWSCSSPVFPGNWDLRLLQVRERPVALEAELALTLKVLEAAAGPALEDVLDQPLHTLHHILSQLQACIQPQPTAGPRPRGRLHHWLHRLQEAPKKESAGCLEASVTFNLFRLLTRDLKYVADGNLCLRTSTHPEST
Chain of IFNγ (P01579 24-161): as the sequence (P01579 24-161) above
Chain of IL4Rα (P24394 26-232): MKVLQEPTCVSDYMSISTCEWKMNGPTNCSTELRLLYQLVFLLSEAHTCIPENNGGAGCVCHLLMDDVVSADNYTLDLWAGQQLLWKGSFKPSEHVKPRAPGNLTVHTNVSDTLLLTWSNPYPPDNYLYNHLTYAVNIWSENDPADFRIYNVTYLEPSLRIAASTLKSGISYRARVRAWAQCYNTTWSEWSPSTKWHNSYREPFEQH
Chain of IL10 (P22301 19-178): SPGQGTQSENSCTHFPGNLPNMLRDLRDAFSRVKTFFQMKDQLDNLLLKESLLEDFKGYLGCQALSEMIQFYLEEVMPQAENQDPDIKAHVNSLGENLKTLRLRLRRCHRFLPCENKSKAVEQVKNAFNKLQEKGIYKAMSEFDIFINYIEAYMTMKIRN
Chain of CCL25 (Homo sapiens) (O15444 24-150): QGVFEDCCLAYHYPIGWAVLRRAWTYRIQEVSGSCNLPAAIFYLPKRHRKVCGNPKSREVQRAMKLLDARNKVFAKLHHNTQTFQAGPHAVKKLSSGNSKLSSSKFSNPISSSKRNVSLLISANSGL
Chain of CCL25 (O15444 24-150): as above

CCL25 (from UniProt O15444 24-150) (ligand)
Kd (CCR9^QTY–Fc): 37.2 nM

CCR9 (from UniProt P51686)
Kd (CCL25 (Homo sapiens)): 8 nM

CXCR2 (from UniProt P25025)
Kd [1]: 0.5 nM | Kd [2]: 8.5 nM | Kd (IL8 (Homo sapiens)): 70 nM

IFNγ (from UniProt P01579 24-161) (ligand)
Kd (IFNγR1^QTY–Fc): 6.2 nM

IFNγR1 (from UniProt P15260)
Kd (IFNγ (Homo sapiens) [3]): 1.7 nM | Kd (IFNγ (Homo sapiens) [4]): 30.8 nM

IL4Rα (from UniProt P24394)
Kd (IL4 (Homo sapiens)): 1 nM

IL10 (from UniProt P22301 19-178) (ligand)
Kd (IL10Rα^QTY–Fc): 1.6 nM

IL29 (from UniProt Q8IU54 20-200) (ligand)
Kd (IFNλR1^QTY–Fc): 11.5 nM
